From the supplement of paper PMC11908140

B1: library; numbered along this chain (parent)
chain: MRKPRAAVGSGHRKQAASQEGRQKHAKNNSQAKPSACDGLARQPEEVVLQASVSSYHLFRDVAEVTAFRGSLLSWYDQEKRDLPWRRRAEDEMDLDRRAYAVWVSEVMLQQTQVATVINYYTGWMQKWPTLQDLASASLEEVNQLWAGLGYYSRGRRLQEGARKVVEELGGHMPRTAETLQQLLPGVGRYTAGAIASIAFGQATGVVDGNVARVLCRVRAIGADPSSTLVSQQLWGLAQQLVDPARPGDFNQAAMELGATVCTPQRPLCSQCPVESLCRARQRVEQEQLLASGSLSGSPDVEECAPNTGQCHLCLPPSEPWDQTLGVVNFPRKASRKPPREESSATCVLEQPGALGAQILLVQRPNSGLLAGLWEFPSVTWEPSEQLQRKALLQELQRWAGPLPATHLRHLGEVVHTFSHIKLTYQVYGLALEGQTPVTTVPPGARWLTQEEFHTAAVSTAMKKVFRVYQGQQPGTCMGSKRSQVSSPCSRKKPRMGQQVLDNFFRSHISTDAHSLNSAAQ

Variants of: B1
Assay: 8OG:A repair function score (normalized; synonymous = 0, nonsense = -1) (normalized log-likelihood score); higher = more repair activity (WT-like)
Settings: with 8OG:A DNA repair reporter (GFP) in HEK-293 MUTYH KO cells
Procedure, shortened: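 Per-tile Rosace fitness scores were converted to a normalized repair function score anchored on synonymous and nonsense distributions. That scale puts synonymous medians at 0 and nonsense medians at -1. Variants with starting counts under 300 counts per million were discarded. Input came from sorting viable mCherry+ MUTYH knockout HEK-293 cells, carrying lentiviral MUTYH cDNA NNN codon-scan libraries in 10 pg/ml doxycycline and an 8OG:A GFP repair reporter, into GFP+ and GFP− bins at 72 h, three replicates per tile, followed by tile amplicon sequencing.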
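Note: cells sorted at 72 h after reporter transfection.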

8OG:A repair function score, by site and new letter:
G326: R -0.176 | H -0.203 | T -0.298 | D -0.344 | F -0.812 | Q -0.123 | S -0.307 | K -0.179 | A -0.264 | P -0.475 | M -0.634 | V -0.514 | E -0.144 | Y -0.435 | L -0.422 | C -0.508 | N -0.0169 | I -0.411
W321: P -0.252 | Q -0.205 | F -0.00541 | V -0.0988 | K -0.189 | C -0.313 | R -0.203 | L -0.0977 | E -0.0643 | Y -0.123 | D -0.53 | G -0.258 | A -0.265 | T -0.301 | I -0.25 | S -0.257 | M -0.218
V327: A -0.205 | C -0.201
D322: M 0.0738 | F -0.0672 | R -0.044 | E 0.0971 | A -0.0859 | Q -0.0416 | W -0.0845 | T -0.0961 | Y -0.0375 | H -0.147 | L -0.0483 | S -0.0836 | V 0.0232 | P -0.322 | I 0.0378 | G -0.115 | N -0.00231 | K 0.00699 | C -0.00563
Q323: S -0.0829 | E -0.0118 | C -0.0398 | P -0.0158 | G -0.0264 | L -0.0798 | K -0.0269 | V -0.00203 | Y -0.013 | R -0.099 | N 0.061 | D 0.0164 | M -0.0348 | T 0.0271 | A -0.0752 | W -0.0368 | I -0.141 | F -0.0491 | H -0.0776
L325: I -0.054 | V -0.142 | T -0.113 | C -0.0972 | S -0.135 | G -0.16 | K -0.0528 | R -0.00254 | W -0.0969 | N -0.136 | P -0.354 | M -0.0835 | F -0.00965 | D -0.204 | A -0.0759 | Y -0.173 | H -0.0759 | Q -0.141 | E -0.08
E319: H -0.0143 | D -0.0309 | T 0.123 | N -0.0746 | C -0.02 | K -0.0997 | Q 0.0567 | S 0.0138 | W -0.0166 | M -0.0278 | A -0.00684 | F -0.211 | R 0.0109 | L 0.0108 | I -0.0159 | P -0.228 | Y -0.0495 | V -0.0112 | G -0.0752
P320: G 0.00385 | L -0.0348 | C -0.000958 | K -0.1 | I -0.0716 | Q -0.104 | E -0.11 | F -0.0659 | V -0.0867 | R -0.0447 | W -0.179 | S -0.0238 | D -0.134 | M -0.0571 | H 0.0683 | Y -0.0806 | N -0.0442 | A -0.0474 | T -0.0175
T324: L -0.000813 | N -0.188 | E -0.099 | M 0.0106 | D -0.162 | S 0.0429 | F 0.00371 | W -0.0525 | C -0.0556 | H -0.0241 | R 0.0185 | P -0.236 | K 0.056 | Y -0.0755 | V -0.0374 | I -0.0894 | G -0.0488 | A -0.0315 | Q -0.0692
S318: H -0.0534 | D -0.0363 | P -0.26 | L -0.0905 | R -0.0645 | K -0.0665 | N -0.0704 | G -0.0532 | I 0.00356 | E 0.0139 | Y -0.0582 | W 0.126 | F -0.00953 | Q -0.0273 | T 0.116 | V -0.155
